According to patent publication US6713604 (TEXAS BIOTECHNOLOGY, dated 2004):

Biological target: T1, integrin α4β1 (human, UniProt P13612 34-1032; P05556 21-798)
T1 construct: whole, on cells; also called VLA-4; very late antigen-4
Assay: VCAM-IgG fusion on goat anti-mouse IgG magnetic beads; binding of Ramos and HL-60 cells
Source text: The media was collected and active protein was purified by immunoprecipitation using Dynal magnetic polystyrene beads coated with goat anti-mouse IgG. Following immunoprecipitation, the beads bound cells that expressed the integrin α_4β_1 such as Ramos and HL-60.

T1 sequence (P13612 34-1032, chain 1 of 2): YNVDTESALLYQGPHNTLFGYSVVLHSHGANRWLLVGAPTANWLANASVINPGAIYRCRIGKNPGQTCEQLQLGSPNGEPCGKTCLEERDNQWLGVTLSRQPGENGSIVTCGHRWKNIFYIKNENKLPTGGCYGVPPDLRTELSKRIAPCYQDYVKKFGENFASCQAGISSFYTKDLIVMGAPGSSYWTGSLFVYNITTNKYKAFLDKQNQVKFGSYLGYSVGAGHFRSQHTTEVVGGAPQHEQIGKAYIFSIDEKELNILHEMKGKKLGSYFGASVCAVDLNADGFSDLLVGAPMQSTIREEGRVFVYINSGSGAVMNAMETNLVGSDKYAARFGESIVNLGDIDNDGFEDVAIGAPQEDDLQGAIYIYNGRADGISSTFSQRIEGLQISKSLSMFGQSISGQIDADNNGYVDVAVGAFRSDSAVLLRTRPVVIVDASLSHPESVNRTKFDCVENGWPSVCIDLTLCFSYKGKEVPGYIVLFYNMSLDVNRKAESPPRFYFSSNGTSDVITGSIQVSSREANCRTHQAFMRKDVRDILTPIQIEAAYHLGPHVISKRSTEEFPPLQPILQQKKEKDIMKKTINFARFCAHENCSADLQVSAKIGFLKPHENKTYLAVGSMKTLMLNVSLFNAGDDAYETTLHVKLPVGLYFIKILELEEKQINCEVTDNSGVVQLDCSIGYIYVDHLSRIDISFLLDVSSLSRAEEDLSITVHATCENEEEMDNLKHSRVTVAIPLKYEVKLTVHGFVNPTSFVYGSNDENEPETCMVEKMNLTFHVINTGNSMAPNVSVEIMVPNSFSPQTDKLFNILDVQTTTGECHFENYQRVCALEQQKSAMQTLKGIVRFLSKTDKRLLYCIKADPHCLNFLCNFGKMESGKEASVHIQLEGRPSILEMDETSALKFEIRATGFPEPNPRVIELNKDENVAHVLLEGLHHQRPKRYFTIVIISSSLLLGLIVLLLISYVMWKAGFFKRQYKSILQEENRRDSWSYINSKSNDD
T1 sequence (P05556 21-798, chain 2 of 2): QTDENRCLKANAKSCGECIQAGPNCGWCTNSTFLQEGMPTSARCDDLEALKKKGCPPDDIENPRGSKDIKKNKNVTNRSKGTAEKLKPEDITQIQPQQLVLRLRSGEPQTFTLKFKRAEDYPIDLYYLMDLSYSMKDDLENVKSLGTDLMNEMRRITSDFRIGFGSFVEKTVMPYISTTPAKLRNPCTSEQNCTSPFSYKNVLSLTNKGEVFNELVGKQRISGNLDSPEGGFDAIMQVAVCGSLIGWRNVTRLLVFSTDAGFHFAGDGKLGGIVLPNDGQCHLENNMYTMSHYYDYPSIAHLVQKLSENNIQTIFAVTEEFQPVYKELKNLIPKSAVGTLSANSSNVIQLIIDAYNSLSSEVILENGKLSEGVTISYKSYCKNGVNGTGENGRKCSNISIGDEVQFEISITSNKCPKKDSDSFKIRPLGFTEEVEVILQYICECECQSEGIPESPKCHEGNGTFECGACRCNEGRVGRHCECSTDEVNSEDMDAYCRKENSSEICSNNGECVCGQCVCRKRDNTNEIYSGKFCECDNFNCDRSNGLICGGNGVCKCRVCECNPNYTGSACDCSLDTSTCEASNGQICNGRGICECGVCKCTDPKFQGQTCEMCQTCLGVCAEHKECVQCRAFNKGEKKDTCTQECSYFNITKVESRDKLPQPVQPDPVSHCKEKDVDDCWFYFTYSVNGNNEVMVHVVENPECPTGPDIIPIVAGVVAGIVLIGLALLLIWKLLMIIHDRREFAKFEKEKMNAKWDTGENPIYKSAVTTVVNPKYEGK

binding result: binds
B1: fusion protein of the two N-terminal domains of human VCAM with the hinge, CH2 and CH3 regions of mouse IgG2A (Fc fusion, UniProt P19320 25-220, looked up)
chain: FKIETTPESRYLAQIGDSVSLTCSTTGCESPFFSWRTQIDSPLNGKVTNEGTTSTLTMNPVSFGNEHSYLCTATCESRKLEKGIQVEIYSFPKDPEIHLSGPLEAGKPITVKCSVADVYPFDRLEIDLLKGDHLMKSQEFLEDADRKSLETKSLEVTFTPVIEDIGKVLVCRAKLHIDEMDSVPTVRQAVKELQVY
notes: domain: two N-terminal domains; Secreted from transfected COS cells and captured on Dynal magnetic beads coated with goat anti-mouse IgG; also called VCAM-1; purified VCAM; not shown: mouse IgG2A hinge, CH2 and CH3 regions, amplified from cDNA of the hybridoma cell line 402C10
